Reference: patent US20210341478A1 (ANTAIMMU BIOMED, published 2021)

Biological target: T1, nucleocapsid protein of SARS-CoV-2 expressed in HEK-293 cells (SARS-CoV-2, UniProt P0DTC9 1-419)
T1 construct: also called 293-NP; 293-NP cell lysates
Assay: ELISA on HEK-293 lysate 293-NP (FIG. 3)

B1: NP-4 IgG (antibody, V domains shown)
VH: EVQLVESGGGLVQPGGSLRLSCAASGFTITNWWIHWVRQAPGKGLEWVAAISPFNGKTHYADSVKGRFTISADTSKNTAYLQMNSLRAEDTAVYYCARLLSIYDYWGQGTLVTVSS
VL: DIQMTQSPSSLSASVGDRVSITCRASQDVWYYVAWYQQKPGKAPKLLISRTNWLDSGVPSRFSGSGSGTDFTLTISSLQPEDFATYYCQQYSDYPLTFGQGTKVEIKR
binding result: binds

B2: NP-3 IgG (antibody, V domains shown)
VH: EVQLVESGGGLVQPGGSLRLSCAASGFTITDYGIHWVRQAPGKGLEWVAYIGPSDGDTHYADSVKGRFTISADTSKNTAYLQMNSLRAEDTAVYYCARTGGYNSWYMDYWGQGTLVTVSS
VL: DIQMTQSPSSLSASVGDRVTITCRASQDVNNWVAWYQQKPGKAPKLLIYFTSYLYSGVPSRFSGSGSGTDFTLTISSLQPEDFATYYCQQHSTYPFTFGQGTKVEIKR
binding result: binds
